Measurements as given in US20190367606A1 (CENTRE FOR DRUG RESEARCH AND DEVELOPMENT, published 2019).

Assays:
[1] = molecular target: T1, human podocalyxin (human, UniProt O00592 23-558); assay: flow cytometry, control antibody, OVCAR3 cells
T1 construct: also called hPodo; hPodocalyxin
T1 sequence: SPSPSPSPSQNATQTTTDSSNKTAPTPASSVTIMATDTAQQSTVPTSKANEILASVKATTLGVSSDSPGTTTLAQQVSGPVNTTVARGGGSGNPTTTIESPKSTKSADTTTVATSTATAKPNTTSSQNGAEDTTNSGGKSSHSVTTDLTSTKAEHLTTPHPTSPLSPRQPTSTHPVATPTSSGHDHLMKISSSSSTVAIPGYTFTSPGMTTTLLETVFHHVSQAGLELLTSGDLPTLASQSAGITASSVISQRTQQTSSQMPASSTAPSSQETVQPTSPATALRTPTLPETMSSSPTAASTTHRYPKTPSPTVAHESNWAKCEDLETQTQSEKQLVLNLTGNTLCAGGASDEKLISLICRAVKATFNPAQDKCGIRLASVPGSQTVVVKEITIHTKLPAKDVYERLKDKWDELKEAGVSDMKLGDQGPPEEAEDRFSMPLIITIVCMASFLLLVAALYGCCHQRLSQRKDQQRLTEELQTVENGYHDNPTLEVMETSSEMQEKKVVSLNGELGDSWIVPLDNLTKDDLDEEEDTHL

[2] = molecular target: T1, human podocalyxin; assay: flow cytometry, control antibody, HUVEC cells
[3] = molecular target: T1, human podocalyxin; assay: flow cytometry, control antibody, A172 cells
[4] = molecular target: T1, human podocalyxin; assay: flow cytometry, control antibody, MCF7 cells
[5] = molecular target: T1, human podocalyxin; assay: flow cytometry, well H03 (right column, cell type not labelled: MDA-MB-231 or MDA-MB-231/hPodo); vertical gate at FL4-H about 10^3.2; the gate differs from that of the Ab-1 panels
[6] = molecular target: T1, human podocalyxin; assay: flow cytometry, control antibody, 293 HEK cells
[7] = molecular target: T1, human podocalyxin; assay: flow cytometry, control antibody, MDA-MB-231 cells
[8] = molecular target: T1, human podocalyxin; assay: flow cytometry, control antibody, T47-D cells
[9] = molecular target: T1, human podocalyxin; assay: flow cytometry, well H01 (left column, cell type not labelled: MDA-MB-231 or MDA-MB-231/hPodo); vertical gate at FL4-H about 10^3.2, cutting the right edge of the control population; the gate differs from that of the Ab-1 panels
[10] = molecular target: T1, human podocalyxin; assay: flow cytometry, control antibody, CaOV3 cells
[11] = molecular target: T1, human podocalyxin; assay: flow cytometry, control antibody, OVCAR10 cells
[12] = molecular target: T1, human podocalyxin; assay: cross competition FACS, MDA-MB-231 cells; row antibody (isotype control) unlabelled 25 ug/mL first; competitor (detected): B-Ova 12 5 ug/mL (control)
[13] = molecular target: T1, human podocalyxin; assay: cross competition FACS, MDA-MB-231 cells; row antibody (isotype control) unlabelled 25 ug/mL first; competitor (detected): B-mlgG1 5 ug/mL (control)
[14] = molecular target: T1, human podocalyxin; assay: cross competition FACS, MDA-MB-231 cells; FACS Buffer row (no unlabelled antibody); B-mlgG1 5 ug/mL (control)
[15] = molecular target: T1, human podocalyxin; assay: cross competition FACS, MDA-MB-231 cells; row antibody (isotype control) unlabelled 25 ug/mL first; competitor (detected): biotinylated Rb/Hu Podo83 5 ug/mL
[16] = molecular target: T1, human podocalyxin; assay: cross competition FACS, MDA-MB-231 cells; row antibody (isotype control) unlabelled 25 ug/mL first; competitor (detected): B-3G2.2 5 ug/mL
[17] = molecular target: T1, human podocalyxin; assay: flow cytometry, control, 1:125, MDA-MB-231 cells
[18] = molecular target: T1, human podocalyxin; assay: flow cytometry, control, Neat, MDA-MB-231 cells
[19] = molecular target: T1, human podocalyxin; assay: flow cytometry, control, 1:5, MDA-MB-231 cells
[20] = molecular target: T1, human podocalyxin; assay: flow cytometry, control, Neat, hPodo/MDA-MB-231 transient transfectants
[21] = molecular target: T1, human podocalyxin; assay: flow cytometry, control, 2:15 (so in the source), hPodo/MDA-MB-231 transient transfectants
[22] = molecular target: T1, human podocalyxin; assay: flow cytometry, control, 2:15 (so in the source), MDA-MB-231 cells
[23] = molecular target: T1, human podocalyxin; assay: flow cytometry, control, 1:5, hPodo/MDA-MB-231 transient transfectants
[24] = molecular target: T1, human podocalyxin; assay: flow cytometry, control, 1:125, hPodo/MDA-MB-231 transient transfectants
[25] = molecular target: T1, human podocalyxin; assay: flow cytometry, control antibody, SKOV3 cells
[26] = molecular target: T1, human podocalyxin; assay: flow cytometry, supernatant 1:5, hPodo/MDA-MB-231 transient transfectants
Description: (§1) The following antibodies were transiently transfected in 293HEK cells, transfected cells were incubated for 96 hours, antibody containing supernatant was then serially titrated in FACS sample buffer. The following supernatants were used as test samples:
(§2) MDA transient transfectants were established as essentially described above in Example 1. MDA transient transfectants and MDA-MB-231 cells were seeded in 96-well v bottom plates at 75,000 cells/well. Cells were pelleted by centrifugation at 400 g for 3 min. Supernatant was removed. The cell pellets were resuspended in 20 μl of the antibody or control supernatants. The plate was incubated on ice for 1 hour.
(§3) The cells were washed by adding 200 μl FACS buffer to dilute unbound antibody. The plate was centrifuged at 400 g for 3 min to pellet cells. The supernatant was removed and repeated. The cell pellets were resuspended in 25 μl of either goat anti-Hu IgG Fc-Alexa647, goat anti-Mouse IgG Fc-Alexa647, or goat anti-rabbit IgG0Fc-A647 (2 μg/ml) and 7A.A.D (2.5 μg/ml). The plates were incubated on ice for 0.5 hours. The wash procedure was again repeated 2×. The cell pellets were finally resuspended in 75 μl FACS buffer and read on the HTFC™ Screening System (IntelliCyt Corporation) (3 sec sip, 1.5 up time) and analyzed on the HyperView® software (IntelliCyt Corporation).

[27] = molecular target: T1, human podocalyxin; assay: flow cytometry, supernatant 1:125, MDA-MB-231 cells
Description: as §1, §2, §3

[28] = molecular target: T1, human podocalyxin; assay: flow cytometry, supernatant 2:15 (so in the source), MDA-MB-231 cells
Description: as §1, §2, §3

[29] = molecular target: T1, human podocalyxin; assay: flow cytometry, supernatant 2:15 (so in the source), hPodo/MDA-MB-231 transient transfectants
Description: as §1, §2, §3

[30] = molecular target: T1, human podocalyxin; assay: flow cytometry titration on 293-6E cells (endogenous podocalyxin), 24 hours at 4 C
Description: (§4) The affinities of huPodo 83 1:1 and huPodo 83 2:1 antibodies were determined against endogenously expressed podocalyxin on 293 HEK cells. 293-6E cells were seeded in 96-well v bottom plates at 100,000 cells/well. The cells were pelleted at 400 g for 3 min and the supernatant was discarded. The cells were placed on ice and antibody 1:3 titrations were prepared using ice cold medium. The cells were resuspended in the prepared antibody titrations at 25 μl/well and incubated at 4° C. for either 24 or 48 hours. 200 μl 1% FBS/PGS (FACS buffer) was added to each well. The cells were pelleted at 400 g for 3 min and supernatant removed. The wash was repeated 2 more times. The cells were resuspended in goat anti-human IgGFc-A647 (2 μg/ml)+2.5 μg/ml 7AAD and incubated on ice for 30 min. The cells were washed as above and resuspended in 50 μl FACS buffer. The cells were analyzed by flow cytometry using the HTFC™ Screening System (IntelliCyt Corporation) (3 sec sip, 1.5 sec up) and the C6 cytometer (Becton Dickenson).

[31] = molecular target: T1, human podocalyxin; assay: kinetic exclusion assay (KinExA 3200), MDA-MB-231 cells
Description: The concentration dependence of free anti-podocalyxin antibody as a function of MDA-MB231 cell number was determined using a KinExA 3200 instrument (Sapidyne Instruments). Briefly, MDA-MB-231 cells, which express endogenous podocalyxin, were titrated 1:2 from 10×10⁶ cells/mL down 12 steps, and incubated with a fixed concentration of anti-podocalyxin antibodies. MDA-MB231 cells and cell bound antibodies were then isolated by centrifugation. Supernatant containing free, unbound antibody was then transferred to a new tube. The supernatant containing free unbound antibody was passed over the column containing PMMA beads coated with a goat anti-IgG-Fc capture antibody. The amount of free antibody captured on the PMMA beads was then measured using a goat anti-IgG-Fc-A647. This process was repeated for every cell concentration. For each sample assayed a new column of PMMA beads with the goat anti-IgG-Fc capture antibody was packed. The concentration of free antibody over the entire 12 step dilution series was then used to determine the antibody Kd's using the standard Kd template in the KineExA Pro Software (Sapidyne Instruments).

[32] = molecular target: T1, human podocalyxin; assay: flow cytometry, supernatant 1:5, MDA-MB-231 cells
Description: as §1, §2, §3

[33] = molecular target: T1, human podocalyxin; assay: flow cytometry, supernatant Neat, hPodo/MDA-MB-231 transient transfectants
Description: as §1, §2, §3

[34] = molecular target: T1, human podocalyxin; assay: flow cytometry, supernatant 1:125, hPodo/MDA-MB-231 transient transfectants
Description: as §1, §2, §3

[35] = molecular target: T1, human podocalyxin; assay: flow cytometry, supernatant Neat, MDA-MB-231 cells
Description: as §1, §2, §3

[36] = molecular target: T1, human podocalyxin; assay: flow cytometry titration on 293-6E cells (endogenous podocalyxin), 48 hours at 4 C
Description: as §4

[37] = molecular target: T1, human podocalyxin; assay: kinetic exclusion assay (KinExA 3200), A172 cells

Control Rb/HuIgG1 (antibody) gave a Live cell GeoMean FL (geometric mean fluorescence units) [1] of 629, a Live cell GeoMean FL (geometric mean fluorescence units) [2] of 489 and a Live cell GeoMean FL (geometric mean fluorescence units) [3] of 644. The Live cell GeoMean FL (geometric mean fluorescence units) [4] was 657, the Q2-LR % of gated cells (FL4-H above the gate) [5] was 3.5% and the Live cell GeoMean FL (geometric mean fluorescence units) [6] was 446. The Live cell GeoMean FL (geometric mean fluorescence units) [7] was 477, the Live cell GeoMean FL (geometric mean fluorescence units) [8] was 667 and the Q2-LR % of gated cells (FL4-H above the gate) [9] was 17.2%. For the same molecule, the Live cell GeoMean FL (geometric mean fluorescence units) [10] was 767 and the Live cell GeoMean FL (geometric mean fluorescence units) [11] was 653.

mlgG1 (antibody) was tested, and the FACS signal of the biotinylated antibody named under assay [12] was 458, the FACS signal of the biotinylated antibody named under assay [13] was 414 and the FACS signal of the biotinylated antibody [14] was 419. It also gave an FACS signal of the biotinylated antibody named under assay [15] of 124000 and an FACS signal of the biotinylated antibody named under assay [16] of 26600.

Rb IgG (antibody) was tested, and the flow cytometry fluorescence (name not given) [17] was 431, the flow cytometry fluorescence (name not given) [18] was 574 and the flow cytometry fluorescence (name not given) [19] was 467. It also gave a flow cytometry fluorescence (name not given) [20] of 762, a flow cytometry fluorescence (name not given) [21] of 617 and a flow cytometry fluorescence (name not given) [22] of 438. For the same molecule, the flow cytometry fluorescence (name not given) [23] was 660 and the flow cytometry fluorescence (name not given) [24] was 645.

MsIgG2a (antibody) gave a Live cell GeoMean FL (geometric mean fluorescence units) [1] of 708, a Live cell GeoMean FL (geometric mean fluorescence units) [2] of 484 and a Live cell GeoMean FL (geometric mean fluorescence units) [3] of 797. For the same molecule, the Live cell GeoMean FL (geometric mean fluorescence units) [4] was 1130, the Live cell GeoMean FL (geometric mean fluorescence units) [6] was 556 and the Live cell GeoMean FL (geometric mean fluorescence units) [7] was 478. The Live cell GeoMean FL (geometric mean fluorescence units) [8] was 787, the Live cell GeoMean FL (geometric mean fluorescence units) [10] was 892 and the Live cell GeoMean FL (geometric mean fluorescence units) [11] was 618. For the same molecule, the Live cell GeoMean FL (geometric mean fluorescence units) [25] was 485.

B1: Rb/Hu Podo83 (Podo83 rabbit VH and VL, human IgG1 chimera) (antibody, V domains shown)
VH: QSLAESGGRLVTPGTPLTLTCTASGIDLSSYAMGWVRQAPGKGLEYIGFIYASGSIFYASWAKGRFTISKTSSTTVDLKMTSLTTEDTATYFCARAGYYFGGNYDLNLWGQGTLVTVSS
VL: DIVLTQTPASVEVAVGGTVTIKCQASQSISNYLAWYQRKPGQPPRLLIYRASTLASGVSSRFKGSGSGTQFTLTISGVECADAATYYCQQGYVSNNLDNIFGGGTEVVVK
notes: Rabbit variable domains cloned into human IgG1 and human Ig kappa constant region constructs (pTT5/IgG1, pTT5/Igk); also called anti-PODO; Ab-1
For B1, the “flow cytometry fluorescence (name not given)” value [26] was 99300, the “flow cytometry fluorescence (name not given)” value [27] was 50600 and the “flow cytometry fluorescence (name not given)” value [28] was 102000. For the same molecule, the “flow cytometry fluorescence (name not given)” value [29] was 155000, the IC50 [30] was 0.0295 µg/mL and the Kd [31] was 0.0456 nM. For the same molecule, the “flow cytometry fluorescence (name not given)” value [32] was 121000, the “flow cytometry fluorescence (name not given)” value [33] was 79000 and the “flow cytometry fluorescence (name not given)” value [34] was 58500. For the same molecule, the “flow cytometry fluorescence (name not given)” value [35] was 143000, the IC50 [36] was 0.0305 µg/mL and the Kd [37] was 0.103 nM.
